Source: the supplement of paper PMC6757056
± gives the standard deviation of the averaged measurements.

B1: library; a variant is named by its letters at N, in order (parent)
chain: GCUGUCACCGGUGCUUGGUACGUUAUAUUCAGCCGGUCUGAUGAGUCUNNNNNNAGACGAAACAGC

How the values were obtained:
[1] = variants of: B1; assay: normalized RNA/DNA level without ligand (relative to sTRSVctl = 100) (log10 (% of sTRSVctl)); HEK293T overexpressing SLC46A1; higher = less ribozyme self-cleavage, higher mRNA level; details: without (6R,S)-folinic acid; ligand present: no
How it was run: (§1)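 Ribozyme switch library plasmids with mCherry reporters (eGFP in certain ligand experiments) went into HEK293T cells at 4 µg per 6-well well. Where ligand was used, it was applied 1 h before transfection, and total RNA was extracted with EDTA 72 h later for reverse transcription, amplification, barcoding and sequencing. RNA level is the RNA-to-DNA read ratio normalized to a spiked-in non-cleaving sequence or to the leading sequences, then scaled and log-transformed. Scaling was ×100 with log10, the leading set comprised 25 sequences, and the cutoff was ≥100 DNA reads.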

[2] = variants of: B1; assay: normalized RNA/DNA level with ligand (relative to sTRSVctl = 100) (log10 (% of sTRSVctl)); HEK293T overexpressing SLC46A1; ligand concentration (+) RNA-Seq: 6 mM; higher = less ribozyme self-cleavage, higher mRNA level; details: with (6R,S)-folinic acid; ligand present: yes
How it was run: as §1

UUCCUA
normalized RNA/DNA level without ligand (log10) [1]: 2.022 ± 0.0051 | normalized RNA/DNA level with ligand (log10) [2]: 2.033 ± 0.011

UUCCUU
normalized RNA/DNA level without ligand (log10) [1]: 2.02 ± 0.017 | normalized RNA/DNA level with ligand (log10) [2]: 2.034 ± 0.018

UUCCUC
normalized RNA/DNA level without ligand (log10) [1]: 2.096 ± 0.011 | normalized RNA/DNA level with ligand (log10) [2]: 2.062 ± 0.02

UUCUCG
normalized RNA/DNA level without ligand (log10) [1]: 1.944 ± 0.0051 | normalized RNA/DNA level with ligand (log10) [2]: 2.02 ± 0.056

UUCUCC
normalized RNA/DNA level without ligand (log10) [1]: 2.083 ± 0.014 | normalized RNA/DNA level with ligand (log10) [2]: 2.02 ± 0.038

UUCUCA
normalized RNA/DNA level without ligand (log10) [1]: 2.019 ± 0.003 | normalized RNA/DNA level with ligand (log10) [2]: 2.04 ± 0.025

UUCUCU
normalized RNA/DNA level without ligand (log10) [1]: 2.06 ± 0.032 | normalized RNA/DNA level with ligand (log10) [2]: 2.05 ± 0.054

GUCUCU
normalized RNA/DNA level without ligand (log10) [1]: 2.0436 ± 0.00093 | normalized RNA/DNA level with ligand (log10) [2]: 2.03 ± 0.044

GUCUCA
normalized RNA/DNA level without ligand (log10) [1]: 2.0197 ± 0.0003 | normalized RNA/DNA level with ligand (log10) [2]: 2.01 ± 0.027

GUCUCC
normalized RNA/DNA level without ligand (log10) [1]: 2.032 ± 0.015 | normalized RNA/DNA level with ligand (log10) [2]: 2.024 ± 0.0098

UUAUAU
normalized RNA/DNA level without ligand (log10) [1]: 1.9416 ± 0.0019 | normalized RNA/DNA level with ligand (log10) [2]: 2 ± 0.057

UUAUAA
normalized RNA/DNA level without ligand (log10) [1]: 1.925 ± 0.0034 | normalized RNA/DNA level with ligand (log10) [2]: 1.981 ± 0.017

GUAUCG
normalized RNA/DNA level without ligand (log10) [1]: 2.028 ± 0.017 | normalized RNA/DNA level with ligand (log10) [2]: 2.05 ± 0.041

GUAUCU
normalized RNA/DNA level without ligand (log10) [1]: 2.034 ± 0.0026 | normalized RNA/DNA level with ligand (log10) [2]: 2.038 ± 0.011

GUAUCC
normalized RNA/DNA level without ligand (log10) [1]: 2.015 ± 0.013 | normalized RNA/DNA level with ligand (log10) [2]: 2 ± 0.035

CUCGUG
normalized RNA/DNA level without ligand (log10) [1]: 1.9917 ± 0.0012 | normalized RNA/DNA level with ligand (log10) [2]: 2.013 ± 0.018

CUCGUU
normalized RNA/DNA level without ligand (log10) [1]: 2.0737 ± 0.0011 | normalized RNA/DNA level with ligand (log10) [2]: 2.0492 ± 0.0012

CUCGUA
normalized RNA/DNA level without ligand (log10) [1]: 2.004 ± 0.016 | normalized RNA/DNA level with ligand (log10) [2]: 1.98 ± 0.046

CUCGUC
normalized RNA/DNA level without ligand (log10) [1]: 2.15 ± 0.022 | normalized RNA/DNA level with ligand (log10) [2]: 2.12 ± 0.035

CUCAAG
normalized RNA/DNA level without ligand (log10) [1]: 1.96 ± 0.024 | normalized RNA/DNA level with ligand (log10) [2]: 2.01 ± 0.023

CUCAAC
normalized RNA/DNA level without ligand (log10) [1]: 2.07 ± 0.029 | normalized RNA/DNA level with ligand (log10) [2]: 2.045 ± 0.0073

CUCAAA
normalized RNA/DNA level without ligand (log10) [1]: 2 ± 0.016 | normalized RNA/DNA level with ligand (log10) [2]: 1.97 ± 0.032

AUCCUC
normalized RNA/DNA level without ligand (log10) [1]: 2.1 ± 0.022 | normalized RNA/DNA level with ligand (log10) [2]: 2.02 ± 0.025

AUCCUU
normalized RNA/DNA level without ligand (log10) [1]: 2.004 ± 0.01 | normalized RNA/DNA level with ligand (log10) [2]: 2.02 ± 0.032

AUCCUA
normalized RNA/DNA level without ligand (log10) [1]: 1.987 ± 0.0057 | normalized RNA/DNA level with ligand (log10) [2]: 2.01 ± 0.079

AUCCUG
normalized RNA/DNA level without ligand (log10) [1]: 1.992 ± 0.0066 | normalized RNA/DNA level with ligand (log10) [2]: 2.02 ± 0.042

GUCGUG
normalized RNA/DNA level without ligand (log10) [1]: 1.9677 ± 0.0013 | normalized RNA/DNA level with ligand (log10) [2]: 2.04 ± 0.029

GUCGUU
normalized RNA/DNA level without ligand (log10) [1]: 2.029 ± 0.018 | normalized RNA/DNA level with ligand (log10) [2]: 2.02 ± 0.056

GUCGUC
normalized RNA/DNA level without ligand (log10) [1]: 2.02 ± 0.03 | normalized RNA/DNA level with ligand (log10) [2]: 2.02 ± 0.034

AUCCGA
normalized RNA/DNA level without ligand (log10) [1]: 1.998 ± 0.0056 | normalized RNA/DNA level with ligand (log10) [2]: 2.023 ± 0.0052

AUCCGC
normalized RNA/DNA level without ligand (log10) [1]: 2.054 ± 0.019 | normalized RNA/DNA level with ligand (log10) [2]: 2.032 ± 0.005

AUCCGU
normalized RNA/DNA level without ligand (log10) [1]: 2.023 ± 0.011 | normalized RNA/DNA level with ligand (log10) [2]: 2.01 ± 0.027

AUCCGG
normalized RNA/DNA level without ligand (log10) [1]: 2.0408 ± 0.002 | normalized RNA/DNA level with ligand (log10) [2]: 2.05 ± 0.023

CUCCAU
normalized RNA/DNA level without ligand (log10) [1]: 2.021 ± 0.011 | normalized RNA/DNA level with ligand (log10) [2]: 2.03 ± 0.0026

CUCCAG
normalized RNA/DNA level without ligand (log10) [1]: 2.033 ± 0.011 | normalized RNA/DNA level with ligand (log10) [2]: 2.0495 ± 0.00031

CUCCAC
normalized RNA/DNA level without ligand (log10) [1]: 2.0214 ± 0.0016 | normalized RNA/DNA level with ligand (log10) [2]: 2.01 ± 0.046

CUCCAA
normalized RNA/DNA level without ligand (log10) [1]: 2.03 ± 0.021 | normalized RNA/DNA level with ligand (log10) [2]: 2.02 ± 0.025

UUCAAC
normalized RNA/DNA level without ligand (log10) [1]: 2.026 ± 0.015 | normalized RNA/DNA level with ligand (log10) [2]: 2.02 ± 0.046

UUAUUC
normalized RNA/DNA level without ligand (log10) [1]: 2.012 ± 0.0098 | normalized RNA/DNA level with ligand (log10) [2]: 2.02 ± 0.079

UUAUUA
normalized RNA/DNA level without ligand (log10) [1]: 1.975 ± 0.0052 | normalized RNA/DNA level with ligand (log10) [2]: 1.99 ± 0.02

AUCAUG
normalized RNA/DNA level without ligand (log10) [1]: 1.989 ± 0.009 | normalized RNA/DNA level with ligand (log10) [2]: 2.005 ± 0.019

AUCAUU
normalized RNA/DNA level without ligand (log10) [1]: 2.05 ± 0.024 | normalized RNA/DNA level with ligand (log10) [2]: 2.03 ± 0.023

AUCAUC
normalized RNA/DNA level without ligand (log10) [1]: 2.01 ± 0.022 | normalized RNA/DNA level with ligand (log10) [2]: 1.98 ± 0.031

AUCAUA
normalized RNA/DNA level without ligand (log10) [1]: 1.98 ± 0.02 | normalized RNA/DNA level with ligand (log10) [2]: 1.99 ± 0.046

AUAUCU
normalized RNA/DNA level without ligand (log10) [1]: 2.0373 ± 0.00034 | normalized RNA/DNA level with ligand (log10) [2]: 2.05 ± 0.04

AUAUCA
normalized RNA/DNA level without ligand (log10) [1]: 2.0081 ± 0.00069 | normalized RNA/DNA level with ligand (log10) [2]: 2.04 ± 0.036

AUAUCG
normalized RNA/DNA level without ligand (log10) [1]: 1.962 ± 0.0099 | normalized RNA/DNA level with ligand (log10) [2]: 2.03 ± 0.035

GUCUAC
normalized RNA/DNA level without ligand (log10) [1]: 2.004 ± 0.0042 | normalized RNA/DNA level with ligand (log10) [2]: 2.02 ± 0.027

GUCUAA
normalized RNA/DNA level without ligand (log10) [1]: 1.978 ± 0.0082 | normalized RNA/DNA level with ligand (log10) [2]: 1.991 ± 0.014

GUCUAG
normalized RNA/DNA level without ligand (log10) [1]: 1.97 ± 0.028 | normalized RNA/DNA level with ligand (log10) [2]: 2.0363 ± 0.0013

GUCACA
normalized RNA/DNA level without ligand (log10) [1]: 1.991 ± 0.0044 | normalized RNA/DNA level with ligand (log10) [2]: 1.996 ± 0.0028

GUCACU
normalized RNA/DNA level without ligand (log10) [1]: 2.02 ± 0.025 | normalized RNA/DNA level with ligand (log10) [2]: 2.03 ± 0.042

AUCUCA
normalized RNA/DNA level without ligand (log10) [1]: 2.02 ± 0.022 | normalized RNA/DNA level with ligand (log10) [2]: 2.018 ± 0.0082

AUCUCC
normalized RNA/DNA level without ligand (log10) [1]: 2.04 ± 0.0049 | normalized RNA/DNA level with ligand (log10) [2]: 2.03 ± 0.064

AUCUCU
normalized RNA/DNA level without ligand (log10) [1]: 2.02 ± 0.023 | normalized RNA/DNA level with ligand (log10) [2]: 2.021 ± 0.0047

GUAUGU
normalized RNA/DNA level without ligand (log10) [1]: 1.937 ± 0.015 | normalized RNA/DNA level with ligand (log10) [2]: 1.995 ± 0.013

GUAUGG
normalized RNA/DNA level without ligand (log10) [1]: 1.921 ± 0.015 | normalized RNA/DNA level with ligand (log10) [2]: 2.02 ± 0.035

GUAUGA
normalized RNA/DNA level without ligand (log10) [1]: 1.987 ± 0.0024 | normalized RNA/DNA level with ligand (log10) [2]: 2.028 ± 0.017
